Measurements from patent publication US20260258083A1 (Amgen, published 2026).
Where no end group is shown, it is not given here. Side-chain parts run from the residue outwards. [ ]: non-standard residue; d: D form. thiosuccinimide (maleimide) = thiosuccinimide linkage from the Cys thiol to the maleimide of 4-arm 5 kDa PEG; thiosuccinimide = thiosuccinimide linkage joining the Cys side chain to 4-arm 5 kDa PEG; pGlu = O=C1CC[C@@H](C(=O)O)N1; disulfide = not defined here; MAL = maleimide

How the values were obtained:
[1] = molecular target: T1, FLT3xCD3 TCE SEQ ID NO 93; assay: SPR solution competition, peptide titrated into fixed TCE, free TCE read on peptide capture surface
T1 construct: Single-chain scFv-scFv-scFc T cell engager; also called FLT3×CD3ε TCE; FLT3_7 A8xCD3-scFc Bispecific HLE molecule
Description: (§1) For the binding assessment, Individual binding isotherms were constructed by titrating the respective peptide of interest into a fixed concentration of TCE-containing solution in PBST. At least 4 hrs equilibration time were allotted (r.t.) prior to analysis by SPR. For the analysis, a calibration curve was first constructed of the TCE analyte being assessed. […] The ‘free’ TCE concentration measured was plotted as a function of log peptide concentration and fit using non-linear regression analysis to a 4 parameter logistic function to derive an IC50.

[2] = molecular target: T1, FLT3xCD3 TCE SEQ ID NO 93; assay: KinExA equilibrium in solution, Table 5
Procedure: (§2) 1. Preparation of NHS-activated sepharose fast-flow beads: [0565] 2. Fast flow sepharose suspension in 100% IPA, washed twice with milliQ H20, mild centrifugation to pool beads in between wash steps. [0566] 3. […] 4. Added 80 mM PDEA to activate the resin for thiol exchange, 10 mins, r.t. [0568] 5. […] 6. Added 30 μg/mL of binding peptide, […] […] (SEQ ID NO: 300), reaction for 1 hr to functionalize resin. [0570] 7. Quench with 10 mM L-Cys for 1 hour. [0571] 8.

[3] = molecular target: T1, FLT3xCD3 TCE SEQ ID NO 93; assay: KinExA association kinetics, Table 5
Procedure: as §2

[4] = molecular target: T1, FLT3xCD3 TCE SEQ ID NO 93; assay: Table 5, ratio to a reference peptide that the table does not name; design: reference not given here
[5] = molecular target: T1, FLT3xCD3 TCE SEQ ID NO 93; assay: kinetics, Table 5
Procedure: as §2

[6] = molecular target: T1, FLT3xCD3 TCE SEQ ID NO 93; assay: KinExA equilibrium in solution, Table 5; single reference peptide QDGNEEMG (original CD3ε epitope)
Procedure: as §2

[7] = molecular target: T2, Steap 1xCD3 TCE SEQ ID NO 373 + 374 + 375; assay: SPR, peptide immobilised on CM5 (PDEA), TCE as analyte, kinetic 1:1 fit
T2 construct: also called STEAP1×CD3e heterodimeric TCE; Ab-A1 Xmab2+1

[8] = molecular target: T3, DLL3xCD3 TCE SEQ ID NO 104; assay: as above
T3 construct: Single-chain T cell engager; also called DLL3×CD3ε TCE

[9] = molecular target: T1, FLT3xCD3 TCE SEQ ID NO 93; assay: as above
[10] = molecular target: CDH3-CD3-MSLN-CD3 TCE (SEQ ID NO 255); assay: SPR, immobilised peptide, bivalent analyte model, fast component
Sequence of CDH3-CD3-MSLN-CD3 TCE (SEQ ID NO 255) (chain, as listed by the source): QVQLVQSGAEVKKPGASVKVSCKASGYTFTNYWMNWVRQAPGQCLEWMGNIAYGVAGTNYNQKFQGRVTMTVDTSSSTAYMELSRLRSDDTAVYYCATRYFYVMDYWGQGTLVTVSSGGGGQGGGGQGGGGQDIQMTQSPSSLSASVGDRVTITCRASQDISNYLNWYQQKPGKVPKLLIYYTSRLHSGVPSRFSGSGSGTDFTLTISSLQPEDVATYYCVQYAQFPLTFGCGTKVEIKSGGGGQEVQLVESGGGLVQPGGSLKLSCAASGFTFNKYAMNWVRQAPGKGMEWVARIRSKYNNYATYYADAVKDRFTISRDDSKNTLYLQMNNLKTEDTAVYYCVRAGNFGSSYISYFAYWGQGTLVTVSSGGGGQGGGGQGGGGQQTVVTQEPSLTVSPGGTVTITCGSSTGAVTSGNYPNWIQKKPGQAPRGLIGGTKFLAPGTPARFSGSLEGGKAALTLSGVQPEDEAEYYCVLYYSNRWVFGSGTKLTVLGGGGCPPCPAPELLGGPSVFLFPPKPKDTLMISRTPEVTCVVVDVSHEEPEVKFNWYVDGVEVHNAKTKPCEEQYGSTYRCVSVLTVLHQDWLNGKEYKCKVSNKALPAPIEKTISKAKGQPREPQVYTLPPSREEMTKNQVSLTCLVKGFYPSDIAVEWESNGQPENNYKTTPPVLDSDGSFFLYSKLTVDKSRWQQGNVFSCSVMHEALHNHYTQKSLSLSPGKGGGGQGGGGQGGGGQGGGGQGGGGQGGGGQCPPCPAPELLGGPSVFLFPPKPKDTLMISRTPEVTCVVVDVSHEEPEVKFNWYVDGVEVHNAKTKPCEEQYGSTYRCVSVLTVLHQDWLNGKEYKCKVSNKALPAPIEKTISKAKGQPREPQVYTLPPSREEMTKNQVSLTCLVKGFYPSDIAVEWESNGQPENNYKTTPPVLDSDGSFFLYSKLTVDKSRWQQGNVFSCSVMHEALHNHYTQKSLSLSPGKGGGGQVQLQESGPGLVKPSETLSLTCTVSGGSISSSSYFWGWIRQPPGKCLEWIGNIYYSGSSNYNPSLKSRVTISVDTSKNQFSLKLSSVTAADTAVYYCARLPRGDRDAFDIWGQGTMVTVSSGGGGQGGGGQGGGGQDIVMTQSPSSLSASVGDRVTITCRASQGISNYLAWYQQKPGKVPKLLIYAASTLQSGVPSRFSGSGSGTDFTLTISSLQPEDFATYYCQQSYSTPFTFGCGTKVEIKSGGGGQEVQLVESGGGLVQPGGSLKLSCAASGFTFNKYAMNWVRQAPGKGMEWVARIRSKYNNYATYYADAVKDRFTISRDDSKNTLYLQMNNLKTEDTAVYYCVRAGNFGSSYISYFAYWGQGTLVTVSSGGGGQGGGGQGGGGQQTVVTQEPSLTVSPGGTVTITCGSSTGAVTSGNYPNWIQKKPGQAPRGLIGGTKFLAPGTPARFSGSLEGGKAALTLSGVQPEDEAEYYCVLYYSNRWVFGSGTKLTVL

[11] = molecular target: CDH3-CD3-MSLN-CD3 TCE (SEQ ID NO 255); assay: SPR, peptide immobilised on CM5 (PDEA), TCE as analyte, steady state affinity
[12] = molecular target: T2, Steap 1xCD3 TCE SEQ ID NO 373 + 374 + …; assay: SPR solution competition, peptide titrated into fixed TCE, free TCE read on peptide capture surface
Description: as §1

[13] = molecular target: T3, DLL3xCD3 TCE SEQ ID NO 104; assay: KinExA equilibrium in solution, KD relative to peptide concentration, TCE 250 pM
[14] = molecular target: T1, FLT3xCD3 TCE SEQ ID NO 93; assay: as above
[15] = molecular target: T2, Steap 1xCD3 TCE SEQ ID NO 373 + 374 + …; assay: KinExA equilibrium in solution, KD relative to peptide concentration, TCE 333 pM
Procedure: 1. […] 2. […] 3. […] 4. Added 80 mM PDEA to activate the resin for thiol exchange, 10 mins, r.t. […] 5. […] 6. […] 7. […] 8.

[16] = molecular target: CDH3-CD3-MSLN-CD3 TCE (SEQ ID NO 255); assay: KinExA equilibrium in solution, KD relative to peptide concentration, TCE 250 pM
[17] = molecular target: T1, FLT3xCD3 TCE SEQ ID NO 93; assay: KinExA equilibrium in solution, KD relative to peptide concentration, TCE 125 pM

## [pGlu]DGNEELKPGC (Position 1 is written E for pGlu) [pGlu-DGNEELKPGC]
[1]
  IC50: 5.2 nM

B1: QDGNEEMG-GMEENGDQ (peptide)
peptide: QDGNEEMGGMEENGDQ
notes: how the reversed half is joined is not explained
[2]
  Kd: 9.88 nM
[3]
  kon: 476000 M⁻¹ s⁻¹
[4]
  fold-Kd: 3.62 fold
  fold-koff: 0.19 fold
  fold-kon: 0.69 fold
[5]
  koff: 0.00471 s⁻¹

B2: (pGlu-DGNEEMGKGMEENGDQC)4 -PEG(20 kDa) (peptide)
peptide: [pGlu]DGNEEMGKGMEENGDQC([disulfide-4‑arm PEG 20 kDa])
modifications: reading uncertain; also: four peptides on one 4-arm PEG, printed as pGlu-DGNEEMGKGMEENGDQC
notes: also called CD3ε PepPOL, v2; Pep-PEG v2
[2]
  Kd: 0.176 nM
[3]
  kon: 1.12e+07 M⁻¹ s⁻¹
[4]
  fold-Kd: 203 fold
  fold-koff: 0.01 fold
  fold-kon: 16.2 fold
[5]
  koff: 0.00195 s⁻¹

## [pGlu]DGNEELPKPGC (Position 1 is written E for pGlu) [pGlu-DGNEELPKPGC]
[1]
  IC50: 2.7 nM

## [pGlu]DGNEELKGC([MAL-PEG 10 kDa]) (also: four peptides per PEG) [(pGlu-DGNEELKGC)4 -MAL PEG(10 kDa)]
[2]
  Kd: 0.142 nM

## QDGNEEMG
[6]
  Kd: 35.8 nM
[3]
  kon: 692000 M⁻¹ s⁻¹
[5]
  koff: 0.0248 s⁻¹
[1]
  IC50: 133 nM

## QDGNEEMGQDGNEEMG [QDGNEEMG-QDGNEEMG]
[2]
  Kd: 11 nM
[3]
  kon: 533000 M⁻¹ s⁻¹
[4]
  fold-Kd: 3.25 fold
  fold-koff: 0.24 fold
  fold-kon: 0.77 fold
[5]
  koff: 0.00586 s⁻¹

## [pGlu]DGNEELKGC (also called ID 14974) [pGlu-DGNEELKGC]
[2]
  Kd: 0.142 nM
[7]
  Kd: 2.57 nM
  koff: 0.00514 s⁻¹
  kon: 2e+06 M⁻¹ s⁻¹
[8]
  Kd: 1.3 nM
  koff: 0.00279 s⁻¹
  kon: 2.14e+06 M⁻¹ s⁻¹
[9]
  Kd: 1.28 nM
  koff: 0.0024 s⁻¹
  kon: 1.88e+06 M⁻¹ s⁻¹
[10]
  koff: 0.0212 s⁻¹
  kon: 2.42e+06 M⁻¹ s⁻¹
[4]
  fold-Kd: 252 fold
[11]
  Kd: 13.3 nM
[12]
  IC50: 13.4 nM
[1]
  IC50: 2.7 nM

## [pGlu]DGEEELKGC [pGlu-DGEEELKGC]
[7]
  Kd: 27.4 nM
  koff: 0.0834 s⁻¹
  kon: 3.04e+06 M⁻¹ s⁻¹
[8]
  Kd: 20.5 nM
  koff: 0.0542 s⁻¹
  kon: 2.64e+06 M⁻¹ s⁻¹
[9]
  Kd: 7.3 nM
  koff: 0.0295 s⁻¹
  kon: 4.04e+06 M⁻¹ s⁻¹
[10]
  koff: 0.236 s⁻¹
  kon: 1.29e+06 M⁻¹ s⁻¹
[11]
  Kd: 72.5 nM
[12]
  IC50: 28.6 nM
[1]
  IC50: 14.7 nM

## [pGlu]DGIEELKGC (Position 1 is written E for pGlu) [pGlu-DGIEELKGC]
[12]
  IC50: 11.6 nM
[1]
  IC50: 3.6 nM

## [pGlu]DGVEELKGC (Position 1 is written E for pGlu) [pGlu-DGVEELKGC]
[12]
  IC50: 26.4 nM
[1]
  IC50: 9 nM

## [pGlu]DGEEELKGC([thiosuccinimide (maleimide)-4‑arm PEG 5 kDa])-NH2 (also: 4-arm PEG conjugate, number of peptide copies not given here, TCE masking molecule) [79677-1]
[13]
  Kd: 4.69 nM

## [pGlu]DGSEELKGC (Position 1 is written E for pGlu) [pGlu-DGSEELKGC]
[12]
  IC50: 16.7 nM
[1]
  IC50: 8.2 nM

## [pGlu]DGTEELKGC (Position 1 is written E for pGlu) [pGlu-DGTEELKGC]
[7]
  Kd: 35.2 nM
  koff: 0.0734 s⁻¹
  kon: 2.09e+06 M⁻¹ s⁻¹
[8]
  Kd: 14.8 nM
  koff: 0.0713 s⁻¹
  kon: 4.81e+06 M⁻¹ s⁻¹
[9]
  Kd: 8.88 nM
  koff: 0.0285 s⁻¹
  kon: 3.21e+06 M⁻¹ s⁻¹
[12]
  IC50: 59.9 nM
[1]
  IC50: 39.7 nM

## [pGlu]DGEEELKGC([thiosuccinimide-4‑arm PEG 20 kDa])-NH2 (also: 4-arm PEG conjugate, number of peptide copies not given here, TCE masking molecule) [79676-1]
[13]
  Kd: 12.8 nM

## [pGlu]DGNEELKGK([acetamide‑thioether-mPEG 20 kDa])-OH (also: Lys 10 side chain linked via thioether (acetamide) to linear 20 kDa mPEG, TCE masking molecule) [73136-2]
[14]
  Kd: 0.173 nM

## [pGlu]DGNEELKGC([thiosuccinimide-4‑arm PEG 5 kDa])-NH2 (also: 4-arm PEG conjugate, number of peptide copies not given here) [79675-1]
[13]
  Kd: 0.0623 nM

## [pGlu]DGNEELKGC([MAL-PEG 5 kDa]) (also: four peptides per PEG) [(pGlu-DGNEELKGC)4 -MAL PEG(5 kDa)]
[2]
  Kd: 0.142 nM

B3: pEDGNEELKGC-NH2 (peptide)
peptide: [pGlu]DGNEELKGC-NH2
SMILES: CC(C)C[C@H](NC(=O)[C@H](CCC(=O)O)NC(=O)[C@H](CCC(=O)O)NC(=O)[C@H](CC(N)=O)NC(=O)CNC(=O)[C@H](CC(=O)O)NC(=O)[C@@H]1CCC(=O)N1)C(=O)N[C@@H](CCCCN)C(=O)NCC(=O)N[C@@H](CS)C(N)=O
notes: Unconjugated peptide (Conjugate column: N/A)
[15]
  Kd: 1.59 nM

## [pGlu]DGNEELKGC([thiosuccinimide-4‑arm PEG 20 kDa])-NH2 (also: 4-arm PEG conjugate, number of peptide copies not given here) [79674-1]
[13]
  Kd: 0.0372 nM
[16]
  Kd: 0.0638 nM

## QDGNEEMGKQDGNEEMG [QDGNEEMG-K-QDGNEEMG]
[2]
  Kd: 8.05 nM
[3]
  kon: 448000 M⁻¹ s⁻¹
[4]
  fold-Kd: 2.77 fold
  fold-koff: 0.28 fold
  fold-kon: 0.56 fold
[5]
  koff: 0.00497 s⁻¹

## QDGNEEMGK [QDGNEEMG-K]
[2]
  Kd: 22.3 nM
[3]
  kon: 806000 M⁻¹ s⁻¹
[5]
  koff: 0.0179 s⁻¹

## [pGlu]DGNEELKGC([thiosuccinimide-4‑arm PEG 5 kDa])-OH [72103-1]
[17]
  Kd: 0.0777 nM

## [pGlu]DGNEEMGKGMEENGDQC (Position 1 is written E for pE) [pGlu-DGNEEMGKGMEENGDQC]
[2]
  Kd: 0.176 nM
[4]
  fold-Kd: 203 fold
[1]
  IC50: 2.4 nM

B4: (QDGNEEMGKGMEENGDQC)4 -PEG(20 kDa) (peptide)
peptide: QDGNEEMGKGMEENGDQC(4‑arm PEG 20 kDa)
modifications: also: four peptides on one 4-arm PEG
notes: Peptide-PEG conjugate with four peptides on one PEG; also called CD3ε PepPOL, v1 (20 kDa); 4-arm 20 kDa PepPOL conjugate
[2]
  Kd: 22 nM
[3]
  kon: 199000 M⁻¹ s⁻¹
[4]
  fold-kon: 1.14 fold
[5]
  koff: 0.0047 s⁻¹
